Laboratory results: patent publication US20160058827A1

Molecular target: MUC1 C-terminal subunit (MUC1-C) (human) (UniProt P15941)
Assay: cell-based or functional assay

Sequence of MUC1 C-terminal subunit (MUC1-C) (human) (P15941 1097-1255): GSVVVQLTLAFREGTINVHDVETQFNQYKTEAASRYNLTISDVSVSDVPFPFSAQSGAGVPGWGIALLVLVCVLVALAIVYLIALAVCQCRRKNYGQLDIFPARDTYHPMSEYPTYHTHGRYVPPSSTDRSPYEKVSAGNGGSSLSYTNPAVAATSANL

GO-203 (peptide)
half-maximal inhibitory concentration for GO-203 (BT-474/CshRNA cell growth): 3.9 µM
